Experimental data: publication PMC7450108, “Pterocarpan synthase (PTS) structures suggest a common quinone methide–stabilizing function in dirigent proteins and proteins with dirigent-like domains” (The Journal of Biological Chemistry, 2020)

Columns and labels:
[1] = tested on: COc1ccc([C@H]2COc3cc(O)ccc3[C@@H]2O)c(O)c1; test: medicarpin formation, chiral HPLC (RU-2); assay type: biochemical, Glycyrrhiza echinata; conditions: 0.1 M sodium phosphate pH 6.6, 30 °C, 5 min, BSA, racemic trans-DMI supplied
Text: (§1) medicarpin formation, chiral HPLC (RU-2) on GePTS1

[2] = tested on: COc1ccc([C@@H]2COc3cc(O)ccc3[C@@H]2O)c(O)c1; test: medicarpin formation, chiral HPLC (RU-2); assay type: biochemical, Glycyrrhiza echinata; conditions: 0.1 M sodium phosphate pH 6.6, 30 °C, 5 min, BSA, racemic cis-DMI supplied
Text: as §1

[3] = tested on: COc1ccc([C@H]2COc3cc(O)ccc3[C@@H]2O)c(O)c1; test: purified protein; conditions: 0.1 M sodium phosphate pH 6.6, 30 °C, 5 min, BSA, racemic trans-DMI supplied, kinetics calculated on (3S,4R) conversion
[4] = tested on: COc1ccc([C@@H]2COc3cc(O)ccc3[C@@H]2O)c(O)c1; test: purified protein; conditions: 0.1 M sodium phosphate pH 6.6, 30 °C, 5 min, BSA, racemic cis-DMI supplied, kinetics calculated on (3R,4R) conversion
[5] = (3S,4R) converted, pET100 construct
[6] = (3R,4R) converted, pET100 construct
[7] = kinetics calculated on (3S,4R) conversion
[8] = kinetics calculated on (3R,4R) conversion

GePTS1 (Glycyrrhiza echinata; Y181F)
Km [1, 5]: 5,665 μM
kcat [1, 5]: 4 s⁻¹
kcat/Km [1, 5]: 710 M⁻¹ s⁻¹
Km [2, 6]: 825 µM
kcat [2, 6]: 5.2 s⁻¹
kcat/Km [2, 6]: 6310 M⁻¹ s⁻¹

GePTS1 (Glycyrrhiza echinata; D83A)
Km [1, 5]: 665 µM
kcat [1, 5]: 1.3 s⁻¹
kcat/Km [1, 5]: 1960 M⁻¹ s⁻¹
Km [2, 6]: 1,300 μM
kcat [2, 6]: 6.3 s⁻¹
kcat/Km [2, 6]: 4870 M⁻¹ s⁻¹

GePTS1 (Glycyrrhiza echinata; D50A)
Km [1, 5]: 520 µM
kcat [1, 5]: 0.2 s⁻¹
kcat/Km [1, 5]: 370 M⁻¹ s⁻¹
Km [2, 6]: 1,175 μM
kcat [2, 6]: 4.9 s⁻¹
kcat/Km [2, 6]: 4180 M⁻¹ s⁻¹

GePTS1 (Glycyrrhiza echinata)
Km [1, 7]: 680 µM
kcat [1, 7]: 15.9 s⁻¹
kcat/Km [1, 7]: 23400 M⁻¹ s⁻¹
Km [2, 8]: 145 µM
kcat [2, 8]: 59.9 s⁻¹
kcat/Km [2, 8]: 413000 M⁻¹ s⁻¹

GePTS1 (Glycyrrhiza echinata; Y103F)
Km [1, 5]: 3,320 μM
kcat [1, 5]: 5.9 s⁻¹
kcat/Km [1, 5]: 1830 M⁻¹ s⁻¹
Km [2, 6]: 555 µM
kcat [2, 6]: 6.9 s⁻¹
kcat/Km [2, 6]: 12300 M⁻¹ s⁻¹

PsPTS1 (Lathyrus oleraceus)
Km [3]: 830 µM
kcat [3]: 3.3 s⁻¹
kcat/Km [3]: 3930 M⁻¹ s⁻¹
Km [4]: 890 µM
kcat [4]: 50.5 s⁻¹
kcat/Km [4]: 56800 M⁻¹ s⁻¹
